Source: patent US20060134087A1, “ITI-D1 Kunitz domain mutants as hNE inhibitors” (Dyax Corp., published 2006)
Positions count from the first letter of the chain named.

Assays:
[1] = biological target: T1, Human Neutrophil Elastase (human, UniProt P08246); assay: display phage on hNE beads, extended pH fractionation
Text: We characterized the binding properties to hNE-beads of MA-BITI and MA-BITI-E7 display phage using the extended pH fractionation procedure described in U.S. Pat. No. 5,223,409.

[2] = biological target: T1, Human Neutrophil Elastase; assay: display phage eluted from hNE beads, normalized to MA-EpiNE7 in a concurrent elution
[3] = biological target: T1, Human Neutrophil Elastase; assay: pH elution of display phage from hNE beads
[4] = biological target: T1, Human Neutrophil Elastase; assay: pH elution of display phage from hNE beads, extended protocol
Text: (§1) Total pfu applied to the beads are in column two. The fractions of this input pfu recovered in each pH fraction of the abbreviated pH elution protocol (pH 7.0, pH 3.5, and pH 2.0) are in the next three columns. For data obtained using the extended pH elution protocol, the pH 3.5 listing represents the sum of the fractions of input recovered in the pH 6.0, pH 5.5, pH 5.0, pH 4.5, pH 4.0, and pH 3.5 elution samples. The pH 2.0 listing is the sum of the fractions of input obtained from the pH 3.0, pH 2.5, and pH 2.0 elution samples. The total fraction of input pfu obtained throughout the pH elution protocol is in the sixth column. The final column of the table lists the total fraction of input pfu recovered, normalized to the value obtained for MA-BITI-E7-141 phage.

[5] = biological target: T1, Human Neutrophil Elastase; assay: pH elution of display phage from hNE beads, abbreviated protocol
Text: as §1

[6] = biological target: T1, Human Neutrophil Elastase; assay: estimated for the free domain from display phage binding to and elution from hNE beads
[7] = biological target: T1, Human Neutrophil Elastase; assay: abbreviated fractionation of display phage on hNE beads
Protocol: To test if ITI-D1E7-display phage bind hNE beads, pH elution profiles were measured. Aliquots of EpiNE-7, MA-ITI-D1, and MA-ITI-D1E7 display phage were incubated with hNE beads for three hours at room temperature (RT). The beads were washed and phage were eluted as described in U.S. Pat. No. 5,223,409, except that only three pH elutions were performed.

[8] = biological target: T1, Human Neutrophil Elastase; assay: enzyme inhibition assay
Protocol: (§2) Inhibition constants for the proteins reacting with hNE (Kᵢ) were determined using RT measurements of hydrolysis of a fluorogenic substrate (N-methoxysuccinyl-Ala-Ala-Pro-Val-7-amino-4-methylcoumarin, Sigma M-9771) by hNE. […] The reactions were incubated at RT for 30 minutes. At the end of the incubation period, the fluorogenic substrate was added at a concentration of 25 μM and the time course for increase in fluorescence at 470 nm (excitation at 380 nm) due to enzymatic substrate cleavage was recorded using a spectrofluorimeter (Perkin-Elmer 650-15) and strip chart recorder. […] Kᵢ is related to Kₐₚₚₐᵣₑₙₜ by Kᵢ=Kₐₚₚₐᵣₑₙₜ×(1/(1+(S₀/Kₘ))). The correction is small compared to the possible errors in Kₐₚₚₐᵣₑₙₜ. Rates of enzymatic substrate cleavage were determined from the linear slopes of the recorded increases in fluorescence.
(§3) We recorded data used to determine Kᵢ for EPI-HNE-2 and EPI-HNE-3 reacting with hNE. Data obtained as described above are recorded as percent residual activity plotted as a function of added inhibitor. […] From the data, Kᵢ values for EPI-HNE-2 and for EPI-HNE-3 reacting with hNE at RT were calculated to be 4.8 pM and 6.2 pM, respectively.

[9] = biological target: T1, Human Neutrophil Elastase; assay: calculated by the filing from koff = KD × kon
Text: […] […] B. Specificity.

[10] = biological target: Human Pancreatic Chymotrypsin (human, UniProt P17538); assay: enzyme inhibition assay; said to be probably not specific
[11] = biological target: T1, Human Neutrophil Elastase; assay: progressive inhibition of hNE substrate hydrolysis after addition of inhibitor
Protocol: The kinetic on-rates for the inhibitors reacting with hNE (kₒₙ) were determined from measurements of progressive inhibition of substrate hydrolytic activity by hNE following addition of inhibitor. For these experiments, a known concentration of inhibitor was added to a solution of hNE (0.847 nM) and substrate (25 μM) in 2 ml of reaction buffer in a plastic fluorescence cuvette. The change in fluorescence was recorded continuously following addition of the inhibitor. […] The enzymatic rate at selected times following addition of the inhibitor was determined from the slope of the tangent to the fluorescence time course at that time.
The kinetic constant kₒₙ for EPI-HNE-2 reacting with hNE was determined as follows. EPI-HNE-2 at 1.3 nM was added to buffer containing 0.867 nM hNE (I:E=1.5:1) at time 0.

[12] = biological target: T1, Human Neutrophil Elastase; assay: inhibition of hNE hydrolysis of a fluorogenic substrate, [hNE] = 8.47 × 10^-10 molar
Protocol: as §2, §3

Human Serum Plasmin = Human Serum Plasmin (human, UniProt P00747); assay: enzyme inhibition assay; limit on the assumption of less than 10% inhibition at the highest concentration tested
Human Serum Kallikrein = Human Serum Kallikrein (human, UniProt P03952); assay: as above
Human Serum Thrombin = Human Serum Thrombin (human, UniProt P00734); assay: as above
Human Urine Urokinase = Human Urine Urokinase (human, UniProt P00749); assay: as above
Human Plasma Factor Xa = Human Plasma Factor Xa (human, UniProt P00742); assay: as above

B1: MA-BITI display phage (designed binder)
chain: RPDFCQLGYSAGPCMGMTSRYFYNGTSMACETFQYGGCMGNGNNFVTEKDCLQTCRGA
SUM, fraction of input from all pH elution fractions [1]: 3.9e-05 fraction of input
SUM, total pfu from all pH elution fractions [1]: 800000 pfu
pfu eluted at pH 2.0 [1]: 7700 pfu
pfu eluted at pH 2.5 [1]: 22000 pfu
pfu eluted at pH 3.0 [1]: 22000 pfu
pfu eluted at pH 3.5 [1]: 86000 pfu
pfu eluted at pH 4.0 [1]: 31000 pfu
pfu eluted at pH 4.5 [1]: 44000 pfu
pfu eluted at pH 5.0 [1]: 96000 pfu
pfu eluted at pH 6.0 [1]: 250000 pfu
pfu eluted at pH 7.0 [1]: 240000 pfu
pfu/Input eluted at pH 2.0 [1]: 3.8e-07 fraction of input
pfu/Input eluted at pH 2.5 [1]: 1.1e-06 fraction of input
pfu/Input eluted at pH 3.0 [1]: 1.1e-06 fraction of input
pfu/Input eluted at pH 3.5 [1]: 4.3e-06 fraction of input
pfu/Input eluted at pH 4.0 [1]: 1.6e-06 fraction of input
pfu/Input eluted at pH 4.5 [1]: 2.2e-06 fraction of input
pfu/Input eluted at pH 5.0 [1]: 4.8e-06 fraction of input
pfu/Input eluted at pH 6.0 [1]: 1.2e-05 fraction of input
pfu/Input eluted at pH 7.0 [1]: 1.2e-05 fraction of input
Normalized fraction of input (relative to recovered MA-EpiNE7) [2]: 0.018 ratio

B2: MA-BITI-E7 display phage (designed binder)
chain: B1 chain with M15V, G16A, T18F, S19P
SUM, fraction of input from all pH elution fractions [1]: 0.00029 fraction of input
SUM, total pfu from all pH elution fractions [1]: 1.8e+06 pfu
pfu eluted at pH 2.0 [1]: 8700 pfu
pfu eluted at pH 2.5 [1]: 23000 pfu
pfu eluted at pH 3.0 [1]: 89000 pfu
pfu eluted at pH 3.5 [1]: 90000 pfu
pfu eluted at pH 4.0 [1]: 240000 pfu
pfu eluted at pH 4.5 [1]: 380000 pfu
pfu eluted at pH 5.0 [1]: 370000 pfu
pfu eluted at pH 6.0 [1]: 280000 pfu
pfu eluted at pH 7.0 [1]: 280000 pfu
pfu/Input eluted at pH 2.0 [1]: 1.4e-06 fraction of input
pfu/Input eluted at pH 2.5 [1]: 3.8e-06 fraction of input
pfu/Input eluted at pH 3.0 [1]: 1.5e-05 fraction of input
pfu/Input eluted at pH 3.5 [1]: 1.5e-05 fraction of input
pfu/Input eluted at pH 4.0 [1]: 4e-05 fraction of input
pfu/Input eluted at pH 4.5 [1]: 6.3e-05 fraction of input
pfu/Input eluted at pH 5.0 [1]: 6.2e-05 fraction of input
pfu/Input eluted at pH 6.0 [1]: 4.7e-05 fraction of input
pfu/Input eluted at pH 7.0 [1]: 4.7e-05 fraction of input
Normalized fraction of input (relative to recovered MA-EpiNE7) [2]: 0.13 ratio

B3: AMINO1 display phage (designed binder)
chain: B1 chain with R1K, P2E, M15V, G16A, T18F, S19P
fold reduction of binding against parental MA-BITI-E7-141 [3]: ≥ 10 fold
Fraction of Input recovered at pH2.0 [4]: 3.5e-05 fraction of input
Fraction of Input recovered at pH3.5 [4]: 0.00023 fraction of input
Fraction of Input recovered at pH7.0 [4]: 2.4e-05 fraction of input
Recovery Relative to BITI-E7-141 [4]: 0.11 ratio
Recovery, Total fraction of input [4]: 0.00029 fraction of input

B4: AMINO2 display phage (designed binder)
chain: B1 chain with R1K, F4S, M15V, G16A, T18F, S19P
fold reduction of binding against parental MA-BITI-E7-141 [3]: ≥ 10 fold
Fraction of Input recovered at pH2.0 [5]: 4.5e-05 fraction of input
Fraction of Input recovered at pH3.5 [5]: 0.00021 fraction of input
Fraction of Input recovered at pH7.0 [5]: 5.7e-05 fraction of input
Recovery Relative to BITI-E7-141 [5]: 0.12 ratio
Recovery, Total fraction of input [5]: 0.00031 fraction of input

B5: MA-BITI-E7-1222 display phage (designed binder)
chain: B1 chain with A11T, M15V, G16A, T18F, S19P
Fraction of Input recovered at pH2.0 [4]: 6.4e-05 fraction of input
Fraction of Input recovered at pH3.5 [4]: 0.0004 fraction of input
Fraction of Input recovered at pH7.0 [4]: 7.2e-05 fraction of input
Recovery Relative to BITI-E7-141 [4]: 0.21 ratio
Recovery, Total fraction of input [4]: 0.00054 fraction of input

B6: MUTP1 display phage (designed binder)
chain: B1 chain with M15I, T18F
Fraction of Input recovered at pH2.0 [5]: 0.00012 fraction of input
Fraction of Input recovered at pH3.5 [5]: 0.00092 fraction of input
Fraction of Input recovered at pH7.0 [5]: 0.00018 fraction of input
Recovery Relative to BITI-E7-141 [5]: 0.46 ratio
Recovery, Total fraction of input [5]: 0.0012 fraction of input

B7: MUT1619 display phage (designed binder)
chain: B1 chain with M15V, T18F, E31Q, Q34V
Fraction of Input recovered at pH2.0 [4]: 8.4e-05 fraction of input
Fraction of Input recovered at pH3.5 [4]: 0.00099 fraction of input
Fraction of Input recovered at pH7.0 [4]: 8.2e-05 fraction of input
Recovery Relative to BITI-E7-141 [4]: 0.46 ratio
Recovery, Total fraction of input [4]: 0.0012 fraction of input
Estimated KD [6]: < 0.01 nM

B8: MUTQE display phage (designed binder)
chain: B1 chain with M15V, G16A, T18F, S19P, Q34V
Fraction of Input recovered at pH2.0 [5]: 0.00053 fraction of input
Fraction of Input recovered at pH3.5 [5]: 0.0016 fraction of input
Fraction of Input recovered at pH7.0 [5]: 0.00012 fraction of input
Recovery Relative to BITI-E7-141 [5]: 0.85 ratio
Recovery, Total fraction of input [5]: 0.0022 fraction of input
Estimated KD [6]: < 0.01 nM

B9: MUTT26A display phage (designed binder)
chain: B1 chain with M15V, G16A, T18F, S19P, T26A, E31Q, Q34V
Fraction of Input recovered at pH2.0 [4]: 0.00033 fraction of input
Fraction of Input recovered at pH3.5 [4]: 0.0019 fraction of input
Fraction of Input recovered at pH7.0 [4]: 0.00025 fraction of input
Recovery Relative to BITI-E7-141 [4]: 0.96 ratio
Recovery, Total fraction of input [4]: 0.0025 fraction of input
Estimated KD [6]: < 0.01 nM

B10: MA-BITI-E7-141 display phage (designed binder)
chain: B1 chain with M15V, G16A, T18F, S19P, E31Q, Q34V
fold increase in total fraction of input eluted, relative to parental MA-BITI-E7 [1]: 10 fold
Fraction of Input recovered at pH2.0 [4]: 0.00032 fraction of input
Fraction of Input recovered at pH3.5 [4]: 0.0021 fraction of input
Fraction of Input recovered at pH7.0 [4]: 0.00021 fraction of input
Recovery Relative to BITI-E7-141 [4]: 1 ratio
Recovery, Total fraction of input [4]: 0.0026 fraction of input
Fraction of Input recovered at pH2.0 [5]: 0.00054 fraction of input
Fraction of Input recovered at pH3.5 [5]: 0.0018 fraction of input
Fraction of Input recovered at pH7.0 [5]: 0.00022 fraction of input
Recovery Relative to BITI-E7-141 [5]: 1 ratio
Recovery, Total fraction of input [5]: 0.0026 fraction of input
Estimated KD [6]: < 0.01 nM

B11: MA-ITI-D1 display phage (other)
chain: KEDSCQLGYSAGPCMGMTSRYFYNGTSMACETFQYGGCMGNGNNFVTEKDCLQTCRTVGA
SUM, total fraction of input from all pH elution fractions [7]: 1.4e-05 fraction of input
fraction of input eluted at pH 2.0 [7]: 1e-06 fraction of input
fraction of input eluted at pH 3.5 [7]: 3e-06 fraction of input
fraction of input eluted at pH 7.0 [7]: 1e-05 fraction of input
fraction of input in Wash [7]: 1e-05 fraction of input
Normalized fraction of input (relative to recovered MA-EpiNE7) [2]: 0.0067 ratio

B12: EPI-HNE-4 (designed binder)
chain: EACNLPIVRGPCIAFFPRWAFDAVKGKCVLFPYGGCQGNGNKFYSEKECREYCGVP
Ki [8]: 0.005 nM
koff [9]: 4.9e-05 s⁻¹
Ki [10]: ~10000 nM
kon [11]: 1.06e+07 M⁻¹ s⁻¹
Kd [12]: 0.0046 nM
Ki (Human Serum Plasmin): > 90000 nM
Ki (Human Serum Kallikrein): > 90000 nM
Ki (Human Serum Thrombin): > 90000 nM
Ki (Human Urine Urokinase): > 90000 nM
Ki (Human Plasma Factor Xa): > 90000 nM
